In assay [1] the target is T1, human prolactin receptor (PRLR), full length on cells (human) (UniProt P16471).
T1 sequence: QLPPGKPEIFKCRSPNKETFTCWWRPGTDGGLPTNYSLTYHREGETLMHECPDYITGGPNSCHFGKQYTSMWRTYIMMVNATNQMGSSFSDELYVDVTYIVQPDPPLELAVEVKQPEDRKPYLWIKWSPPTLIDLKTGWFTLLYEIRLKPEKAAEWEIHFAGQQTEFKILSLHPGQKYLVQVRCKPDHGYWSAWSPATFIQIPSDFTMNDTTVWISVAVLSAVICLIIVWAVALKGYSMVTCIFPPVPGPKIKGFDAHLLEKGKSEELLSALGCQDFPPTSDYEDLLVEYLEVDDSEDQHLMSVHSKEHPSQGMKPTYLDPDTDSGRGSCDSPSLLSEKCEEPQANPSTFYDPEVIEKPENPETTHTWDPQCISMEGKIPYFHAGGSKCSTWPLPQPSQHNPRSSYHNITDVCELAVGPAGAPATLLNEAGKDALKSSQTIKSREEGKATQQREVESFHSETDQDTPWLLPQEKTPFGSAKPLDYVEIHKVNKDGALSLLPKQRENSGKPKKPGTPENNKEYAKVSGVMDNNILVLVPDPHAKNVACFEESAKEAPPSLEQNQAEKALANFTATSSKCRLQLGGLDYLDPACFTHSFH
Put plainly: cell-based or functional assay.

Assay [2] has as its target recombinant extracellular domain (ECD) of the human prolactin receptor (PRLR) (human) (UniProt P16471). In words: Biacore SPR, procedures similar to Table 6, PRLR ECD. (In SPR one partner is held on a chip, and binding of the other changes the refractive index at the surface.)
Assay [3] shares this target. Put plainly: Biacore 2000 SPR, antibody captured, PRLR ECD injected.

B1: XHA.06.983 (antibody, from another filing, V domains shown)
VH: DVQLVESGGGLVQPGGSRKLSCAASGFAFSSFGMQWVRQAPEKGLEWVAYISSGSSTIYYADTVKGRFTISRDNPKNTLFLQMTSLRSEDTAMYYCVRSGRDYWGQGTSVTVSS
VL: SIVMTQTPKFLLVSAGDRVTITCKASQGVSNDVAWFQQKPGQSPKLLIYSASTRYTGVPDRLTGSGYGTDFTFTINTVQAEDLAVYFCQQDYTSPTFGGGTKLEIKR
Usually Kd stands for the equilibrium constant for the complex coming apart. Regarding B1, the Proliferation inhibition IC50 for BaF3/PRLR in assay [1] is 0.1. In assay [1], this molecule displayed a pERK1/2 inhibition IC50 (prolactin-stimulated T47D cells) of 0.11. Further, the figures for the Kd in assay [2] and in assay [3] were 0.043 nM and 0.1 nM, respectively.

B2: XHA.06.642 (antibody, from another filing, V domains shown)
VH: EVQLVESGGDLVKPGGSLKLSCAVSGFTFSSYGMSWVRQTPDKRLEWVATVSSGGTYTYYPDSVKGRFTISRDNAKNTLYLQMSSLKSEDSAMYYCARHRGNYYATYYYAMDYWGQGTSVTVSS
VL: DIVLTQSPASLAVSLGQGATISCRASKSVSTSGYTYMHWYQQKPGQPPKLLIYLASNLESGVPARFSGSGSGTDFTLNIHPVEEEDAATYYCQHSGELPPSFGGGTKLEIKR
Take B2: the Kd in assay [2] was determined as 0.934 nM.

The record behind these values is patent US20080292620A1.
